The values below come from patent publication US9322000B2, “Methanol dehydrogenase enzymes from Bacillus” (Sinvent AS, priority 2012, dated 2016).

Read-outs that look alike come from different tables or passages of the source.

As a reminder, the Km is the substrate concentration at which the rate is half of its maximum.

Format in all cases: biochemical
A short description of series [1]: In vitro methanol dehydrogenase activity in lysates of recombinant B. subtilis 168. The note with it: for methanol dehydrogenase activity on expression in B. subtilis (in words): 50° C., pH 9.5. The protocol: B. subtilis 168 cells were transformed with the act-MGA3, mdh-MGA3, mdh2-MGA3, and mdh3-MGA3 expression plasmids, and the analogous vectors coexpressing each of the methanol dehydrogenase genes with the act-MGA3 gene. Positive colonies were picked from the plate and the plasmid was isolated and checked by restriction for positive clones. Colonies were picked from plate and grown overnight at 37° C. (250 rpm) and diluted to OD600=0.1 in 20 ml LB containing chloramphenicol (5 μg/ml). After 3 hrs of growth at 37° C. (250 rpm), 500 μl 40% xylose were added to the culture to induce expression. The culture was grown for another 3 hrs and samples of 2 ml were taken. The sample was spun down for 2 min, 11.000×g and the supernatant was removed. The pellet was resuspended in 300 μl Birnboim A for B. subtilis (10 mM Tris-HCl pH 8.0; 20% sucrose; 50 mM NaCl; 0.25 mg/ml lysozyme; protease inhibitor) and incubated at 37° C. for 30 minutes. The samples were stored at −80° C. before use. In addition, we took advantage of recombinant E. coli cells constructed in the project expressing mdh-MGA3, mdh2-MGA3, mdh3-MGA3 and act-MGA3 from the pET21a plasmid in the in vitro assays.
The activities of the Mdh proteins were measured by following the formation of NADH spectrophoto-metrically. The reaction mixture contained: • 100 μl Glycine-KOH (pH 9.5) • 100 μl 5M Methanol (or 5M ethanol) • 5 μl 1M MgSO4 • 10 μl 50 mM NAD^+ • 10 μl sample • (10 μl E. coli act-pET21a lysate) • 775 μl H2O
The cuvets and reaction mixture without cell lysate were pre-incubated at 50° C. Formation of NADH was followed for 10 minutes at 340 nm at 50° C. The total activity was calculated by dividing the increase in absorption units per min by the extinction coefficient ([…]) and the total protein concentration in U/mg total protein. All assays were performed both by using methanol and ethanol as alternative substrates.

Series [2] can be described thus: In vitro Mdh activity in crude cell extracts of recombinant E. coli. The following applies: for In vitro activity: expressed in E. coli, crude cell extract; for ranking of Mdh activity on expression in E. coli: in vitro and in vivo. The source says:
The genes coding for Mdh and the Mdh activator protein Act were amplified from pET21a-plasmids harboring genes from B. methanolicus strains MGA3 (mdh-MGA3, mdh2-MGA3, mdh3-MGA3 and act-MGA3) and PB1 (mdh-PB1, mdh1-PB1 and mdh2-PB1). The genes were then cloned either into the pSEVA424 plasmid (mdh genes) or in the pSEVA131 plasmid (act gene). For cloning of mdh-MGA3, mdh-PB1, mdh1-PB1 and act-MGA3, EcoRI and HindIII restrictions sites were used, while mdh2-MGA3, mdh2-PB1 and mdh3-MGA3 were cloned by using EcoRI and PstI restriction sites. The resulting expression vectors were transformed into electrocompetent wt E. coli K-12 (BW25113) and into E. coli K-12 (BW25113) with a deleted frmA gene.
Expression Experiments For expression experiments, the cells were cultivated in either Luria-Bertani (LB) medium for in vitro assays or in M9 medium for in vivo assays both containing 20 μg/ml streptomycin for pSEVA424. When Act was co-expressed the medium was supplemented with 100 μg/ml ampicillin. Expression was induced when cells reached OD 0.5 (for in vitro tests) or OD 1 (for in vivo tests) by adding 0.1 mM IPTG (final concentration) for 6 hours. Cells were then harvested by centrifugation. For in vitro assays, crude cell extract was prepared by lysing the cells in a French press following ultracentrifugation. Alternatively, cells were resuspended in M9-medium without glucose for in vivo activity measurements. Enzyme Assays
In vitro measurements of Mdh activity: For determination of Mdh activity in crude cell extracts, the Mdh dependent formation of NADH was monitored at 340 nm. The assays were performed either at 37° C. or 45° C. in prewarmed buffer solutions. The Mdh assay contained 10-20 μg enzyme, 50 mM K2HPO4-buffer, pH7.4, 2.5 mM MgCl and 0.5 mM of NAD^+ (final concentrations). After 5 min of preincubation, the reaction was started with 1 M of methanol (final concentration).

Series [3] is described as follows: Methanol dehydrogenase assay of purified recombinant MDH proteins (NADH production at 340 nm). The following applies: for Vmax, variable substrate Methanol + Act / Km / Vmax, variable substrate Methanol: 45° C., pH 9.5; for Vmax, variable substrate Methanol: absence of Act. How it is done:
Alcohol dehydrogenase activities were measured spectrophotometrically essentially as described previously (Hektor, Kloosterman et al. (2002) Chem 277(49): 46966-46973) and the reaction mixture contained: 100 mM Glycine-KOH pH 9.5 (unless otherwise stated), 5 mM MgSO4, 0.5 mM NAD^+ and 500 mM alcohol (methanol, ethanol, propanol, 1,3-propanediol, or butanol). NAD^+ was substituted with equal concentrations of NADP^+, FMN^+, and FAD^+, when indicated. The reaction mixture for measurements of formaldehyde reductase activity contained: 50 mM Potassium-phosphate buffer pH=6.7, 0.15 mM NADH, 1 mM DTT and 11.6 mM (0.1-116 mM) formaldehyde. The assay components were mixed in the cuvette and pre-warmed to 45° C., unless otherwise stated. The reactions were started by addition of 5-40 μg of the purified MDH proteins, and the production of NADH was monitored at 340 nm for 4 minutes. One unit of MDH activity was defined as the amount of enzyme needed to produce 1 μmol NADH per minute under the conditions described above. Purified Act (0.1-40 μg) or NudF (20 μg) proteins were added to the reaction mixtures as indicated in the text.
The purified MDH and Act proteins (20 μg) were used in the kinetic experiments performing the methanol dehydrogenase and the formaldehyde dehydrogenase assays essentially as described above. […] For determination of the Km for NAD^+ (Km,NAD+) and Vmax, the methanol concentration was kept constant at a saturating level (500 mM), while the concentration of NAD^+ was varied (5-1000 μM). […] Act (20 μg) was added to the reaction mixtures for determination of Kμ,MεOH and Vmax values in the presence of this activator, as indicated in the text. In general, the slopes of activity versus time were linear in the measured period (data not shown). Km and Vmax values were calculated by using nonlinear regression with the Microsoft Excel solver-tool to fit the measured data to the Michaelis-Menten equation, as described previously (Jakobsen et al., (2009) Appl Environ Microbiol 75(3): 652-661). The values obtained from the regression were then compared to the values obtained from Lineweaver-Burk and Hanes-Woolf plots to ensure that the global minimum, not a local minimum, had been found.

Where [4] appears, read: methanol 500 mM, read-out: Km, variable substrate NAD+.

B1: Mdh-MGA3: previously reported plasmid pBM19-encoded NAD-dependent methanol dehydrogenase of B. methanolicus MGA3, SEQ ID NO. 8 (protein)
chain: MTTNFFIPPASVIGRGAVKEVGTRLKQIGAKKALIVTDAFLHSTGLSEEVAKNIREAGVDVAIFPKAQPDPADTQVHEGVDVFKQENCDSLVSIGGGSSHDTAKAIGLVAANGGRINDYQGVNSVEKPVVPVVAITTTAGTGSETTSLAVITDSARKVKMPVIDEKITPTVAIVDPELMVKKPAGLTIATGMDALSHAIEAYVAKGATPVTDAFAIQAMKLINEYLPKAVANGEDIEAREKMAYAQYMAGVAFNNGGLGLVHSISHQVGGVYKLQHGICNSVNMPHVCAFNLIAKTERFAHIAELLGENVAGLSTAAAAERAIVALERINKSFGIPSGYAEMGVKEEDIELLAKNAYEDVCTQSNPRVPTVQDIAQIIKNAM
modifications: Bacillus methanolicus MGA3
With B1, the “methanol dehydrogenase activity on expression in B. subtilis (in words)” value (“methanol dehydrogenase activity” below) in series [1] is listed as “expressed active methanol dehydrogenases”. Also, in series [1] (Act supplied from E. coli lysates), the “ranking of activity in B. subtilis” value is reported as “most active”. Moreover, the In vitro activity was determined as 464 mU/mg in series [2] (37° C., +Act); 48 mU/mg in series [2] (37° C., −Act); 1260 mU/mg in series [2] (45° C., +Act); 251 mU/mg in series [2] (45° C., −Act). Moreover, the “Vmax, variable substrate Methanol + Act” value in series [3] (20 μg MDH + 20 μg Act) is listed as 0.5 U/mg. For the same molecule, the Michaelis-Menten constant (Km) was 12000 µM in series [3] (20 μg MDH + 20 μg Act, read-out: Km, variable substrate Methanol + Act) and 14 µM in series [3] (setting [4]). The “Vmax, variable substrate Methanol” value in series [3] was 0.08 U/mg. For the same molecule, in series [3] (Act added vs. no Act), the “reduction of Km,MeOH in the presence of Act” value came to 17 fold.

B2: Mdh3-MGA3: NAD-dependent methanol dehydrogenase encoded by chromosomal gene mdh3 of B. methanolicus MGA3, SEQ ID NO. 4 (protein)
chain: MKNTQSAFYMPSVNLFGAGSVNEVGTRLAGLGVKKALLVTDAGLHSLGLSEKIAGIIREAGVEVAIFPKAEPNPTDKNVAEGLEAYNAENCDSIVTLGGGSSHDAGKAIALVAANGGTIHDYEGVDVSKKPMVPLIAINTTAGTGSELTKFTIITDTERKVKMAIVDKHVTPTLSINDPELMVGMPPSLTAATGLDALTHAIEAYVSTGATPITDALAIQAIKIISKYLPRAVANGKDIEAREQMAFAQSLAGMAFNNAGLGYVHAIAHQLGGFYNFPHGVCNAILLPHVCRFNLISKVERYAEIAAFLGENVDGLSTYEAAEKAIKAIERMARDLNIPKGFKELGAKEEDIETLAKNAMNDACALTNPRKPKLEEVIQIIKNAM
modifications: Bacillus methanolicus MGA3
Turning to B2, the “methanol dehydrogenase activity” value in series [1] is listed as “expressed active methanol dehydrogenases”. The In vitro activity in series [2] (37° C., +Act) is listed as 327 mU/mg; in series [2] (37° C., −Act), 21 mU/mg; in series [2] (45° C., +Act) it was 867 mU/mg; in series [2] (45° C., −Act), 113 mU/mg. Further, the “Vmax, variable substrate Methanol + Act” value in series [3] (20 μg MDH + 20 μg Act) is given as 0.45 U/mg. Moreover, the “Vmax, variable substrate Methanol” value in series [3] was determined as 0.09 U/mg. Moreover, the Michaelis constant (Km) in series [3] (setting [4]) was 40 µM. For the same molecule, the “change of Km,MeOH in the presence of Act (in words)” value in series [3] (Act added vs. no Act) is reported as “remained essentially the same”.

B3: Mdh2-MGA3: NAD-dependent methanol dehydrogenase encoded by chromosomal gene mdh2 of B. methanolicus MGA3, SEQ ID NO. 2 (protein)
chain: MTNTQSAFFMPSVNLFGAGSVNEVGTRLADLGVKKALLVTDAGLHGLGLSEKISSIIRAAGVEVSIFPKAEPNPTDKNVAEGLEAYNAENCDSIVTLGGGSSHDAGKAIALVAANGGKIHDYEGVDVSKEPMVPLIAINTTAGTGSELTKFTIITDTERKVKMAIVDKHVTPTLSINDPELMVGMPPSLTAATGLDALTHAIEAYVSTGATPITDALAIQAIKIISKYLPRAVANGKDIEAREQMAFAQSLAGMAFNNAGLGYVHAIAHQLGGFYNFPHGVCNAVLLPYVCRFNLISKVERYAEIAAFLGENVDGLSTYDAAEKAIKAIERMAKDLNIPKGFKELGAKEEDIETLAKNAMKDACALTNPRKPKLEEVIQIIKNAM
modifications: Bacillus methanolicus MGA3
As for B3, in series [1], the “methanol dehydrogenase activity” value is “expressed active methanol dehydrogenases”. For the same molecule, the “ranking of activity in B. subtilis” value in series [1] (act and mdh gene co-expressed from the same plasmid) is reported as “most active”. Further, the In vitro activity in series [2] (37° C., +Act) amounted to 672 mU/mg; in series [2] (37° C., −Act), 59 mU/mg; in series [2] (45° C., +Act), 1910 mU/mg; in series [2] (45° C., −Act) it was 310 mU/mg. Moreover, the “ranking of Mdh activity on expression in E. coli” value in series [2] is “gave the best results”; in series [2] (listed as MGA3-Mdh2), “overall highest activities both in vitro and in vivo”. In series [3] (20 μg MDH + 20 μg Act), the “Vmax, variable substrate Methanol + Act” value is given as 0.15 U/mg. Further, in series [3], the “Vmax, variable substrate Methanol” value is on record as 0.04 U/mg. The Km in series [3] (setting [4]) was 22 µM. Moreover, the “change of Km,MeOH in the presence of Act (in words)” value in series [3] (Act added vs. no Act) is given as “remained essentially the same”.
